Here are results for 3 molecules from patent publication US20250312452A1 (BRISTAR IMMUNOTECH, published 2025).

For assay [1], the target named is T1, MSLN (UniProt Q13421 296-580, limits assumed).
T1 construct: also called mesothelin
The assay can be described thus: BLI affinity detection.

In assay [2] the target is human Claudin18.2 expressed on cells (human) (UniProt P56856). The assay can be described thus: flow cytometry on SNU1-hClaudin18.2 cells, APC anti-human IgG Fc secondary antibody.
Assay [3] has as its target T2, Human Claudin18.2 His tag protein (human, UniProt P56856-2 1-261, limits assumed).
T2 construct: also called Claudin18.2 protein; not shown: His tag
T2 sequence (looked up): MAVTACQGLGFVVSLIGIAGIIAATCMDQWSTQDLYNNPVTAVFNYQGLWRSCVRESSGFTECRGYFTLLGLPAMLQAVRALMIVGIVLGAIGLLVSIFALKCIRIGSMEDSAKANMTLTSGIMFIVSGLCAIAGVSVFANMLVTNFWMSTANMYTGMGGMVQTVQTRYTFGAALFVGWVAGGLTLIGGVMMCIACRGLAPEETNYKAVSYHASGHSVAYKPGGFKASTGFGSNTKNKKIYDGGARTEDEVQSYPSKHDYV
The assay can be described thus: BLI (Octet), antibody on Protein A biosensor. On the procedure: The affinity of Claudin18.2 nanobodies was determined. The affinity of the antibodies was measured using the Fortebio Octet® detection instrument based on the biolayer interferometry (BLI) technique.
After the 5 antibodies were immobilized on the Protein A biosensor, the antibodies could bind to the Human Claudin18.2 His tag protein. The measured affinity was calculated using Data Analysis 11 software of the Octet RED96e (ForteBio). The affinities (KD values) of antibody NCLD04 and antibody NCLD31 for the Claudin18.2 protein are both favorable.

Assay [4] concerns the target human Claudin18.2 expressed on cells (human) (UniProt P56856). The assay can be described thus: flow cytometry on SNU1-hClaudin18.2 cells.
For assay [5], the target named is T3, Claudin18.2 protein (UniProt P56856-2 1-261, limits assumed).
T3 sequence (looked up): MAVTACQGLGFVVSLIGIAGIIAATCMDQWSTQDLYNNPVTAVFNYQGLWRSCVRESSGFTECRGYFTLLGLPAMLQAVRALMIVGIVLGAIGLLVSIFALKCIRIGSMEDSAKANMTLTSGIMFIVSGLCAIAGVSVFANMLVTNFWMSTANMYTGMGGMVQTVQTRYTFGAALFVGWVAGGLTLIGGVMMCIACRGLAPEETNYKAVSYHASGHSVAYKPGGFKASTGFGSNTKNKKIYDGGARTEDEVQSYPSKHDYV
The assay can be described thus: flow cytometry of STAR-T cells stained with Claudin18.2 protein. The text has this: The above-mentioned vectors were used to package lentiviruses and infect T cells. After one week of culture, the expression levels of STAR and Claudin18.2 on the cells were detected by flow cytometry.
Specifically, the expression of the Claudin18.2 antibody in the STAR structure on the cell membrane was detected by staining with the Claudin18.2 Protein antibody, and the positive rate of STAR vector infection was detected by mTCRβ. […] The protein binding of NCR8020-NCLD04α-STAR and NCLD04 STAR is relatively good, exceeding 55%. Both MND-NCLD04β-NCR802a STAR-mL15 and MND-NCR8020-NCLD04α STAR-mL15 can be successfully expressed on the membrane.
For orientation: In flow cytometry, cells or beads pass a laser one at a time.

T1 sequence (Q13421 other isoform, or with tags, fused parts or gaps limits assumed): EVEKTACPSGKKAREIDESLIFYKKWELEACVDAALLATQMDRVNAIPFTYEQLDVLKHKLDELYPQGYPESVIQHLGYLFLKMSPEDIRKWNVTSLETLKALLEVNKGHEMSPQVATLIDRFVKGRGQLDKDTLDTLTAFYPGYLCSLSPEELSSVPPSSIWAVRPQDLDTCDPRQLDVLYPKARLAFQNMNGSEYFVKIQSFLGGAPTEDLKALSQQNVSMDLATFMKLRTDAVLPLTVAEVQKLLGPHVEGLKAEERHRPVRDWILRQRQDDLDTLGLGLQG

B1: NM5 (VHH)
VHH: DVQLQESGGGLVQAGGSLRLSCVGAGVSFSPYGIGWWRQAQGNQREWVASIYRSGSTNYEDFAKDRFTISRDNTKNTAYLQMNSLKPEDTAVYYCQILGTSYRGQGTQVTVSS
notes: also called nanobody NM5; NM5 antibody
As to B1, in assay [1], the Kd worked out at 11.4 nM.

B2: NCLD14 (VHH-IgG1 Fc) (Fc fusion)
chain: DVQLQESGGGLVQPGGSLRLSCATSGFTFSTYNMGWFRQAPGKEREFVGSIKWSASTTYYADSVKGRFTISRDNAKNTVYLQMNSLKPEDTAIYYCAGSPHIALGTRTEMYPYWGQGTQVTVSS
notes: Tested as VHH-IgG1 Fc; also called antibody NCLD14; not shown: IgG1 Fc fused to the VHH
B2 displayed an EC50 (read off the curve) in assay [2] of 3 nM. In assay [3], this molecule registered a Kd of 72.6 nM, a koff of 0.00456 s⁻¹ and a kon of 62900 M⁻¹ s⁻¹. The EC50 in assay [4] was 21 nM.

B3: NCLD04-STAR (NCLD04β-STAR-a(G4S)3OX40(gh)) (other)
chain 1: DVQLQESGGGLVQPGGSLRLSCTASGLTFNDYAVSWLRQAPGKEREFVATIRGSGGVTNYGASAEGRFIISRENAENTVYLQMNSLKSEDTAVYYCNARPLFGWSEEYWGQGTQVTVSSEDLRNVTPPKVSLFEPSKAEIANKQKATLVCLARGFFPDHVELSWWVNGKEVHSGVCTDPQAYKESNYSYCLSSRLRVSATFWHNPRNHFRCQVQFHGLSEEDKWPEGSPKPVTQNISAEAWGRADCGITSASYQQGVLSATILYEILLGKATLYAVLVSTLVVMAMVKRKNS
chain 2: DIQNPEPAVYQLKDPRSQDSTLCLFTDFDSQINVPKTMESGTFITDKCVLDMKAMDSKSNGAIAWSNQTSFTCQDIFKETNATYPSSDVPCDATLTEKSFETDMNLNFQNLLVIVLRILLLKVAGFNLLMTLRLWGGGGSGGGGSGGGGSRRDQRLPPDAHKPPGGGSFRTPIQEEQADAHSTLAKI
notes: Synthetic T-cell receptor and antigen receptor on T cells; NCLD04 VHH on the beta constant region; also called NCLD04-STAR-T
Regarding B3, the “protein binding (percent of cells)” value in assay [5] is above 55%.

Usually Kd stands for the concentration at which binding is half-saturated. By EC50 (read off the curve) is commonly meant the concentration at which the effect is half-maximal. High values mean lower potency in that assay, low ones higher potency in that assay. One may read the koff as a measure of how fast the partners let go of each other. By kon is commonly meant a measure of how fast the partners come together. In general, EC50 refers to the concentration giving half of the maximal effect. Lower therefore signals a more potent agent.
